This is an account of results in US20230226096A1 (Orna Therapeutics, Inc., priority 2020, published 2023).

To fix the notation:
B1: Hepatovirus C (nucleic acid)
DNA: TTCAAAAGCCCCAGCGGGGTTTCATTACCCCGCTGTGGCTTTTGGACTTCCCTAGGATGGGGAAGTAAATTACCATCCTCGCGTTTGCCGTGCGTTAACGGCTACTTTTCTTCTAGCTGTAGAAGTAAAATTCAGCATGTTTTATGTTTGTTTGTCTTGTTTGTTATATACATTTTTACACTCCTACAAATGCACATGAAGAACAGTTTGTAGAGATTAACAAACGCTTAGCTGAACCTAGGTGGTGAATCTAGTAGTAAGATAAGTAGAGGAAGCTATACCTTAAGTTGGTTGGGCCCTCGTGTTTGCTCTATAAACAAAACCAAGTGAGTAGAGTGGATGAACAGTACTAAATCCCTGAGTACAGGGAACCTCACAGGTGTGATACACTTATGTCTATGTGACCTGGTTGGAGGTTGGGCGTGCCCTATGATACTGGAGTGGGAGATCTTTTGGGGAACCCACGTTTTCACACTGCCTGATAGGGTCTTGCCGAGAGACTCACTTGTTTCGGCTGTACTTGTAAC
modifications: Hepatovirus C
B2: Hepatovirus I (nucleic acid)
DNA: GGCTGCCTGTGTCTCAGGGGTAAGTACTGGGGCCGCGTTGACCGTGCGGTACGGTTATGCTTTTAGATTAGGATGTCCGTCTGTCCGGCACTCTCTTTTGCTTAAAATGGCCTTAAATCCATGGGAGGCGTAACCATGGGCCCTTTGTTACCTAGACATGATTGCATTGGGGGCCGTCCTTGGGGCTTAGGCCCCAGCCATTTCTCTTGACTCGTCTAAGAGTTTACTTCATCCTTTTCTTTACTTTATTTTCCAGGCTCTCAGCATGCCGACGGCTCTGACCACTGCGCCCGGTGGGGTTAACTGCATGATTAGCATGCAGCTGTAGGAGTTAAAAGTGCTGACAGGCCAATTCTGACGTAAGTCCACTCTATATTAACTTGATCAAGTAAGGTTGATTGATCTTTGTGAGAGGGTAGGCTACGGGTGAAACCCTCTAGGTTAATACTCATATTGAGAGATACCTCCAGAAGGTGAAGGTTGGCGGATATTGGTGAGTTCTTTTAGGACAAAAACCTTTCAACGCCTGTGGGCCCACCTCACTGGCACAATGCTTTCATCCCCAATTGTGATGGGTAGTTTGGACTGAAATCAGGAGTAACCTGCCCTACGAGTTTAGGGGTAGTTCAGGGGTATTTAGGCTTCCACATTTGATAGAGTTTATGAGAGTGAGCC
modifications: Hepatovirus I
B3: Didelphis aurita HAV (nucleic acid)
DNA: TCTTTGGTCTGGGGAACTAAAATACCAGACCCGCGTTTGCCTAGCGATATAGGCTTTAATTGTTGTTTGTCATTGTGCGTTTGATATGTGTTTTAATGTAAATAATAATTCTAGCAGGTTCTAGTTCTTGATCATGTCCTCTTTAAGGCACTCATTTCAACTTGCTATCTTTCTTTTCTTCCTTGGTTCTCCCTACACCAAATGCACTGGCCGCTGCGCCCGGCGGGGTCAACCACATGATTAGCATGTGGCTGTAGGTGTTGAAGGCTGGGACATGAACATCAATGGAATAGTGCGCATGCTTACTGGGGTCCATTGAAGTAGTGGGATCTTTCTATTGGGGTAGGCTACGGGTGAAACCCCTTAGGTTAATACTCATATTGAGAGATACCTTGGATAGGTTAACTGTGCTGGATATGGTTGAGTTTAACGACAAAAAGCCATCAACAGCTGTGGACAGAACCTCATCCTTAGATTGCTCACTATGGATATGTGCTCTGGGCGTGTTTCTTGCATGATGGCCATTGGTCAATTCATGCCTGGGCCAATGTAGGATTAGCCTTAAATTACTTTTTAAAAGTAGCCTCATTTAGCTGGACTAATGGTGGGGCGTATGATCCTGCATTTGGCCTCTGGGGTAATCAGGGGCATTTAGGTTTCCACATAATAGCAAAT
modifications: Hepatovirus A
B4: Falcovirus A1 (nucleic acid)
DNA: TAAAAGGGGACGCGGTGTGGCAGCTTTGGCTGTCATGCCGTGTTCTCCTTTTACCCCAAGGACTAGCCTTGGGGGTTTTCCAAATTCCTTTCCCTGTAGGCTTTACTTCTCTTTATCTATCTTTTCTGTAACTAAGTTTTGCCTATTCTAAAAATATTTTAGAATGTGTTTGGATGTAACTAAGTTTGTGCCTGCCCTAAAAATATTTTAGGGCTTGTTTGGATAACCTCGTCCCTTGTGTTCAGTGCCGCACAATTTGCTAGGCACTGTTCACTTCCTTTGTTTGTCCATTATGTATGCTAAGGTATGAATTCCATCATATGCTTAGCCTCTACATGCATAATCTTATTCCCTCCCTGGTGCAAACTACGCCCCCAACATATGTGAATCTTTTAAGCATATTCCTGACCCCACACATATATATGTGTTCTCGTGAATTCCCCCACCGTGAGGTGGTCACTTGGACGTGGTGTGTGTCACACAGCATATATATGATGCAGGATGTTGTTTTTAAGATAAGCATATGTCCTTAGTGCTTTGCATCATTTCCTCCACACCCCGTGAATGCGGCTAATCTTAACCCTGTTGGGTCCGTGGGTAAACCAACCCATTAACCACAGGACGGAACCGACTACTTTCGGGAGTGTGTGTTTCTTTTTCTTCTTTTGTCACT
B5: Hepatovirus H2 (nucleic acid, listed as Hepatovirus sp.)
DNA: GTCATGTTTCTCTTTAAGAACACTCAATTTTGGCCATAAGTGAGACTCTTGTCGAACCTTTCATGTCAGGACCATGTTAGGGCCATTATCCTTTTCCCTGGGGCATTCTTCTTGCCCCTGTTTCATCTTTCTATCATCTTTCTTCCGGGCTCTCACAATGCCAATGGAGCGACCGATGCGCACGTCGGGGTTAACCCATGGATTAGCCATGGGCTGTAGCTGCTAAAAGTTGTGACTCCTGAAGCATACTATCAATGGTAGTAGATGTAACTGAAACACTGAAGCTTCTCTGATCTTGAAAGAAGGGTAGGCTACGGGTGAAACCCTTCAGGTTAATACTCATATTGAGAGATACCTTTGGTAGGTTAACGTTGGCGGATAATGTTGAGTTTAACGACAATAAACATTCAACGCCTGTGGGCGAACCTCACCAATTTCATGCTTTGAAGTGAATGTGCGTAGGGTCTCTATCGGAGATGCTATGTGGATGGTGCCCTCCCTGGAAACAGGTTGTAGGGGTACTCAGGTGCACTTAGGTTTCCACATTTTAAAGATTTTTC
B6: Tremovirus B (nucleic acid)
DNA: TTCAAATGGCCCCTGGGTTGATACCCAGTGGTCATTTGGACACTTTGGTAAGGAGGTGTAATTATCCTTCCCATGTGGAACCTAGTGCTTAGGTTTACTTTATATGTTCTTTGTTTGTCCTTTGTACTTTCTATCGGGCAATCTTGTTGTTCAATACAATATGTATTTGAACTGCCTAAGATAAATTCAGTTTTCAACCAACCCCTCTCTTGGGGTTGTGTCTTTCTTTCTTTCTTATATCCTCTTAAGCTGACTTACTTGCTAATCCGACTCCTCGTCAACGGGAGGGTAAAGCAGTATCACTAGGGTATTGTGATGTAGGAGAAAAAGTAAGTAGAGATAGTGCATGTAACGAAAGTGACTTGGTACTTTAAACTCTCTTAATCCCAAAGTGTGGTATTGGTCATGTTGGAGTAGGCTACGGGTGAAACTCCTTCACATTTAGTAATGTGTTCACACGCTAACGCTACGGTAGATGACAGACTAGGTCTTATTCTCAACGTAGGGGGACGGGTGTATGTTCATGATTAGCCACATATTAAGGTTTTGAGGGGCTGAGTCATATAAGTATGTGCATTAATTTCTGGTACTGGTCCCTGGGGACTGGCCCTTTTCTAGGTTGATTTTAGTTTCCCCAATTTTTAAAAACTAATGAGATTTACGAC
modifications: Tremovirus B
B7: Hepatovirus D (nucleic acid)
DNA: CTTTGGATGCCCATAGTGCGGGGGTATAAATACCGCACTCCCTTTAGCTGTTCCGAGGGTATCGGAACCTATATGTTTGTTTTCTGTCTGTCTGTCAGCTTTATGTGTGCTCGTCCCCTTTAGGGCACTCATTTCAGCTTGCTTTCATTCTTTTCTTCCCCGGTTCTCACCTTACCGGAGGCACTGGCCGTTGCGCCCGGCGGGGTCAACCTAGTGATTAGCACTAGGCTGTAGGTGTCTAAAGTGGTGACATTAAGACTTGGTAACTGATTTCAGCACTGTTAACTGATGTTGGGGATGACTTGATTGATCTTCTGGAAGGGGTAGGCTACGGGTGAAACCCCTTATCTTAATACCACTATGTAGAGATAGATTCAGTAGGTTAAGGGCAGTGGATAAGGTTGAGTTCATTTTGGACAATAAACCTTCAACACTGGTGGACCCAATCTCACTGACCAGATGCTTTCTTGACTGATCCTTCAGAGGGGTGATTCTTCTGAATAGGTTGCCTTGACACTGATGCCTGAGACCCATTGGGTCGGGCCTTAAATCATGGAACTCCACTGGACTTTCATGGCCTAGCTTCTGCCTTAGACAGACTCTGGGGCCCCACGACCCTCTGGGCCCTTCGGGGTACTCAGGGGCATTTAGGTTTTTCCACAATTAAAAGAGTTA
modifications: Hepatovirus D
B8: Hepatovirus G1 (nucleic acid, listed as Hepatovirus sp.)
DNA: GCAAGGGGTGGTTTTAACCTTGCACGCGTTTACCGTGCGTTAACGGTTTTCCATGTTTGTATGTCTTGTTTGTATTATGTGTTTTGTAAATATTAATTCCTGCAGGTTCAGGGTTCTTTAATCATGTTGGGCTGTACCCACACTCAACTTTTGGCCATAAGTGAGTTTCTTAACGAACCTTTTAACACAGGATGTTATTAGGGCCCAATATTTTCCCTGAGGCCTTCTTTGGCCTCTATTTTTTCCCCTTTTCTATCTCCTTGTATTCCGGGCTCACGTGATGCCAATGGACTGACCCATGCGCCCGTGGGGGTTAACTACTGGAGTAGCCAGTAGCTGTAGGTGCTAAAAGTCACGTACGTGTAAGACTGGACGAGACCTCTCAGCTATAACTGAAAGTAGTAAGTATGTCTGAACTTCTTGAAGGGGTAGGCTACGGGTGAAACCCCTTAGGTTAATACTCATATTGAGAGATACCTCTGATAGGTGAAGGTTTCCGGTAGAGGTGAGTTTAACGACAAAGCCTCTCAACGGATGTGGGCCCACCTCATCAGCAAGATGCTTTCATACCCAATACCGTAGGGGCTGGGTTGTTGAGTTCAGTCCCAAGCGTCCCTCCCGCAAGGTTGTAGGGGTACTCAGGGGCATTTAGGTTTCCACAATTAAACAAATACA

This data set relates to HEK293 cells. The format is cell-based, human. Particulars: luminescence from secreted Gluc in supernatant 24 hours after transfection of HEK293 cells; circular RNA encoding Gluc with the named IRES (UTR truncated to 675 nt).
Molecule B1 returned an Expression of 5.08E+05.

B2 came in with an Expression of 8.79E+05.

In turn, B3 registered an Expression of 1.38E+05. As for B4, the Expression came out at 1.48E+05. As for B5, the Expression came to 1.08E+05. In the case of B6, the Expression came out at 1.31E+05. B7 came in with an Expression of 1.47E+06. On to B8, for which the Expression came to 1.41E+05.
